Measurements published in patent US20190262327A1, “COMBINATION OF A BACE INHIBITOR AND AN ANTIBODY OR ANTIGEN-BINDING FRAGMENT FOR THE TREATMENT OF A DISORDER ASSOCIATED WITH THE ACCUMULATION OF AMYLOID BETA” (ASTRAZENECA AB, priority 2016, published 2019).

Experiments:
[1] = target: T1, Amyloid beta 1-42 peptide (Rattus norvegicus, UniProt P08592); assay: Total Amyloid beta 1-42 peptide in rat brain homogenates (ELISA); format: in vivo; details: normal rats
T1 construct: Measurement of free Amyloid beta 1-42 peptide in rat CSF; from tissue; host or cells: CSF and brain homogenate of Sprague-Dawley rats
Experimental: (§1) Eight-week old male albino Harlan Sprague-Dawley rats (n=8-12) received a single dose of Abet0380-GL IgG1-TM antibody by intravenous injection with a dosing vehicle of 25 mM Histidine, 7% Sucrose, 0.02% p80 surfactant, pH 6.0 at 5 ml/kg. Dosing solutions were made just before dosing. Animals were anaesthetized at the time indicated and cerebrospinal fluid (CSF) was aspirated from the cistema magna. CSF samples were centrifuged for 10 minutes at approximately 3000× g at 4° C. within 20 minutes of sampling to remove cells or debris. Samples were then frozen on dry ice and stored at −70° C. for subsequent analysis.
Animals were sacrificed by decapitation, brain tissue was dissected and Amyloid beta peptides were extracted from brain tissue in diethylamine (DEA; Fluka. Sigma. UK; cat: 31729). Briefly, frozen brain tissue was homogenized in 0.2% DEA and 50 mM NaCl (Merck, USA: cat: 1.06404.1000). Brain homogenates were ultracentrifuged at 133,000×g, for 1 hour. Recovered supernatants were neutralized to pH 8.0 with 2 M Tris-HCl (TRIZMA®-hydrochloride; Sigma, UK; cat: 93363) and stored at −70° C. until analysis. Animal experimentations were performed in accordance with relevant guidelines and regulations provided by the Swedish Board of Agriculture. The ethical permission was provided by an ethical board specialized in animal experimentations: the Stockholm Södra Animal Research Ethical Board.
Measurement of total (free and Abet0380-GL bound) Amyloid beta 1-42 peptide in rat brain homogenates was performed using modifications of the mouse Amyloid beta (1-42) colorimetric ELISA kit (Invitrogen, UK: cat: KMB3441). […] To stop the reaction, 100 μl of Stop Solution was added to each well and the plate was read within 2 hours at an absorbance of 450 nm. […]
The ability of antibody Abet0144-GL to sequester amyloid beta 1-42 was investigated in a PK-PD study in normal rats. […] Free and total amyloid beta 1-42 levels were measured using assays described above.

[2] = target: T1, Amyloid beta 1-42 peptide; assay: Free Amyloid beta 1-42 peptide in rat CSF (immunoprecipitation + ELISA); format: in vivo; details: normal rats, 10 mg/kg i.v. weekly for 2 weeks; not significant
Experimental: as §1
Measurement of free Amyloid beta 1-42 peptide in rat CSF was conducted using immunoprecipitation to remove Abet0380-GL bound Amyloid beta 1-42 peptide, followed by analysis by a commercial ELISA kit obtained from Invitrogen. Briefly, a solution of protein A beads (Dynabeads® Protein A; Invitrogen, UK; cat: 100-02D) was added to a 96 well non-skirted plate (polypropylene 0.2 ml; VWR International, UK; cat: 10732-4828) and washed twice with TBST (50 mM TBS; Sigma, UK; cat: T6664 plus 0.1% Tween20) using a magnet (DynaMag™ 96 side; Invitrogen, UK; cat: 123.31 D) to separate the beads from the solution. Thawed rat CSF samples (40 μl) were added to each well and incubated at […] with tilt rotation for 1 hour. The beads were then pelleted using the magnet and 30 μl of immunoprecipitated CSF samples were transferred to a 96 well plate from the ELISA kit (mouse Amyloid beta (1-42) colorimetric ELISA kit; Invitrogen, UK; cat: KMB3441) with 70 μl of the Standard Diluent Buffer already added (supplemented with protease inhibitor; Roche, UK; cat: 11836153001). Calibration standard samples were added to the plate in duplicate and the plate was incubated for 2 hours at room temperature with shaking. The plate was washed 4 times with 400 µl of wash buffer, 100 μl of the detection antibody solution was added to each well and the plate was incubated for 1 hour at room temperature with shaking. Again, the plate was washed 4 times with 400 μl of wash buffer, 100 μl of the secondary antibody working solution was added to each well and the plate was incubated for 30 minutes at room temperature with shaking. Finally, the plate was washed 4 times with 400 μl of wash buffer, 100 μl of stabilized Chromogen was added to each well and the plate was incubated for 30 minutes at room temperature in the dark. To stop the reaction, 100 μl of Stop Solution was added to each well and the plate was read within 2 hours at an absorbance of 450 nm. Single CSF samples were analyzed and data analysis was performed using Prism 4 (GraphPad, USA) with one-way ANOVA on log transformed data without adjustment for multiple comparisons.
To further investigate the effect of the Abet0380-GL IgG1-TM antibody in vivo, rats were administered weekly doses of 0.25, 0.5, 1, 5 or 10 mg/kg over 14 days. Animals were euthanized 168 hours after the second dose to measure levels of free Amyloid beta 1-42 peptide in CSF as well as total Amyloid beta 1-42 or 1-40 peptides in brain tissue.
The ability of antibody Abet0144-GL to sequester amyloid beta 1-42 was investigated in a PK-PD study in normal rats. Rats were intravenously administered Abet0144-GL (10 or 40 mg/kg) or vehicle weekly for 2 weeks (on days 0 and 7), and sacrificed a week after the 2nd dose. […] Free and total amyloid beta 1-42 levels were measured using assays described above.

amyloid beta 1-42 = target: T2, amyloid beta 1-42 (Rattus norvegicus, UniProt P08592); assay: Total amyloid beta 1-42 in rat CSF (PK-PD study in normal rats); format: in vivo
T2 construct: Measurement of free Amyloid beta 1-42 peptide in rat CSF; from tissue; host or cells: CSF and brain homogenate of Sprague-Dawley rats
Experimental: The ability of antibody Abet0144-GL to sequester amyloid beta 1-42 was investigated in a PK-PD study in normal rats. Rats were intravenously administered Abet0144-GL (10 or 40 mg/kg) or vehicle weekly for 2 weeks (on days 0 and 7), and sacrificed a week after the 2nd dose. CSF was sampled for free and total amyloid beta 1-42, and brain was sampled for total amyloid beta 1-42 measurement. Free and total amyloid beta 1-42 levels were measured using assays described above.

[3] = target: T3, human Amyloid beta 1-42 peptide (Homo sapiens, UniProt P05067); assay: Surface Plasmon Resonance kinetic profiling of purified scFv (ProteOn); format: binding; details: biotinylated human Amyloid beta 1-42 on streptavidin chip
T3 construct: biotinylated human Amyloid beta 1-42 peptide (rpeptide, USA; cat: A1117); purchased rPeptide, USA A1117; host or cells: synthetic peptide
Text: Surface Plasmon Resonance was used to analyse the purified scFv clones that had shown significant improvement in binding affinity for human Amyloid beta 1-42 peptide over the parent sequence, Abet0144-GL, in the HTRF™ epitope competition assay (sections 1.3-1.6). Briefly, the ProteOn Protein Interaction Array System (BioRad, USA) was used to assess the kinetic parameters of the interaction between each purified scFv and synthetically produced human Amyloid beta 1-42 peptide. These experiments were performed essentially as described by Karlsson et al. (Karlsson et al., 1991).
The affinity of binding between each test scFv and human Amyloid beta 1-42 was estimated using assays in which biotinylated synthetic human Amyloid beta 1-42 peptide (rPeptide, USA; cat: Al 117) was non-covalently bound via a biotin/streptavidin interaction to a proprietary streptavidin chip (NTA 176-5021) at five different surface densities. The chip surface was regenerated between cycles by a single 60 second injection of 10 mM Glycine pH 2.0 to remove scFv bound to the peptide.
Each scFv at 100-200 nM was sequentially passed over the peptide surface for a sufficient amount of time to observe sensorgrams that could be fitted to an appropriate binding model with confidence. An irrelevant scFv blank was subtracted from the main dataset to reduce the impact of any buffer artefacts or non-specific binding effects. An appropriate binding model was then fitted to the data.

[4] = 10 mg/kg i.v. weekly for 2 weeks
[5] = 40 mg/kg i.v. weekly for 2 weeks

T1 sequence (P08592 672-713 limits assumed): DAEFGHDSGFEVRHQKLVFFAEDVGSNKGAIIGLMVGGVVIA
T3 sequence (P05067 672-713): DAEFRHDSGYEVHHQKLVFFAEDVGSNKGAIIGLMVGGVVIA
T2 sequence (P08592 672-713 limits assumed): as the sequence (P08592 672-713 limits assumed) above

B1: Abet0144-GL: parent anti-Aβ antibody clone, germlined; VH domain SEQ ID NO: 20 and VL domain SEQ ID NO: 29 (antibody, listed as Homo sapiens, V domains shown)
VH: EVQLLESGGGLVQPGGSLRLSCAASGFTFSVYTMWWVRQAPGKGLEWVSVIGSSGGTTVYADSVKGRFTISRDNSKNTLYLQMNSLRAEDTAVYYCAREWMDHSRPYYYYGMDVWGQGTLVTVSS
VL: SYELTQPPSVSVSPGQTASITCSGHNLEDKFASWYQQKPGQSPVLVIYRDDKRPSGIPERFSASNSGHTATLTISGTQAMDEADYYCQAQDSTTRVFGGGTKLTVL
modifications: /note=“Abet0144-GL”
[1]; [4]
  increase of total amyloid beta 1-42 in brain tissue: 16%
[1]; [5]
  increase of total amyloid beta 1-42 in brain tissue: 50%
[2]
  increase of free amyloid beta 1-42 in CSF compared with vehicle: 5%
Amyloid beta 1-42; [4]
  increase of total amyloid beta 1-42 in CSF: 38%
Amyloid beta 1-42; [5]
  increase of total amyloid beta 1-42 in CSF: 139%
[3]
  ka: 116000 M⁻¹ s⁻¹
  kd: 0.0066 s⁻¹
